Source: patent US11472855, “RNA-binding protein” (Panitch Schwarze Belisario & Nadel LLP)

What was measured:
Details in all cases: label: Alexa680 at 5' and 3'
[1] = biological target: T1, hPUF_MT(R2_N12S,Q16R, R3→R5, R4→R6) (R2 repeat N12S,Q16R); test: EMSA; binds C exclusively
T1 chain: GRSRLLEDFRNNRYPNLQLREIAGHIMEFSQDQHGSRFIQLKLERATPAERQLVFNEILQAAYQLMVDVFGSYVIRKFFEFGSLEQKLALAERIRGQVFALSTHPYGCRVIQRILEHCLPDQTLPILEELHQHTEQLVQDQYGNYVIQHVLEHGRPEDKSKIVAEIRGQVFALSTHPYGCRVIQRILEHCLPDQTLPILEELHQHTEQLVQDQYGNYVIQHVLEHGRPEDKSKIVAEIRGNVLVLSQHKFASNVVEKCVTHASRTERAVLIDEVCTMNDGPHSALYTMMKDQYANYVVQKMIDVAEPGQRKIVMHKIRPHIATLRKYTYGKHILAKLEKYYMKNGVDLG

hPUF_MT(R7_ILQ) = biological target: T2, hPUF_MT(R7_ILQ) (UniProt Q14671 SEQ:1-342); test: EMSA; comparable to WT
T2 chain: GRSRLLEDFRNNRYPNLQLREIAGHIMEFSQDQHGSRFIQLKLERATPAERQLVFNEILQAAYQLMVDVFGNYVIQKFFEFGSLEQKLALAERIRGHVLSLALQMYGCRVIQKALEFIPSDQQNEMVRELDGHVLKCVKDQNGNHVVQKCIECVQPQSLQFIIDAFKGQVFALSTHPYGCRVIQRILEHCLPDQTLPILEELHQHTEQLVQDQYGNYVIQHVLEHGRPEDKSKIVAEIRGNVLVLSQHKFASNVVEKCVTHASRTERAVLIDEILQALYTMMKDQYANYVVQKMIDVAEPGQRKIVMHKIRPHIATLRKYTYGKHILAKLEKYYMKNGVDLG

hPUF_MT(R7_IRG) = biological target: T3, hPUF_MT(R7_IRG) (UniProt Q14671 SEQ:1-342); test: EMSA; comparable to WT
T3 chain: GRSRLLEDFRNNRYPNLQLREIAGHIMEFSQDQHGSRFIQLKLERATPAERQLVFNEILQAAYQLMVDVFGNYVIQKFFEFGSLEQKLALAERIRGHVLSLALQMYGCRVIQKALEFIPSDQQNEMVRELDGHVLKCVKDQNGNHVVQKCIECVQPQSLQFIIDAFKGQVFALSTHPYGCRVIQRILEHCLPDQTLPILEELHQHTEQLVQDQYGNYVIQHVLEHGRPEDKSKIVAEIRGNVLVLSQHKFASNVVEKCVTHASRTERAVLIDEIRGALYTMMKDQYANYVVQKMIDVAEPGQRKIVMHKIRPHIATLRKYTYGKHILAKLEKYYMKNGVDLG

[2] = biological target: T4, hPUF_MT(R7_S12N,E16Q, R3→R5, R4→R6) (R7 repeat S12N,E16Q); test: EMSA; binds U exclusively
T4 chain: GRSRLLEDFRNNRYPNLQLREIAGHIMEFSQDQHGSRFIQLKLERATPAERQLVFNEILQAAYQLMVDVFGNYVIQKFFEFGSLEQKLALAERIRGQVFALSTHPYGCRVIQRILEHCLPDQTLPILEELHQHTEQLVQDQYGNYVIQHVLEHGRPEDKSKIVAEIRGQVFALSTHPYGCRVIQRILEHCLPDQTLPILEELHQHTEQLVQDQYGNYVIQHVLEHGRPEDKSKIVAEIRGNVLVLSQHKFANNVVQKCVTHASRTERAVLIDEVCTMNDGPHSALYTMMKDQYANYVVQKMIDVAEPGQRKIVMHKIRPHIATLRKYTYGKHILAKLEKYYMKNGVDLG

[3] = biological target: T5, hPUF_MT(R2_N12S,Q16E, R3→R5, R4→R6) (R2 repeat N12S,Q16E); test: EMSA; binds G exclusively
T5 chain: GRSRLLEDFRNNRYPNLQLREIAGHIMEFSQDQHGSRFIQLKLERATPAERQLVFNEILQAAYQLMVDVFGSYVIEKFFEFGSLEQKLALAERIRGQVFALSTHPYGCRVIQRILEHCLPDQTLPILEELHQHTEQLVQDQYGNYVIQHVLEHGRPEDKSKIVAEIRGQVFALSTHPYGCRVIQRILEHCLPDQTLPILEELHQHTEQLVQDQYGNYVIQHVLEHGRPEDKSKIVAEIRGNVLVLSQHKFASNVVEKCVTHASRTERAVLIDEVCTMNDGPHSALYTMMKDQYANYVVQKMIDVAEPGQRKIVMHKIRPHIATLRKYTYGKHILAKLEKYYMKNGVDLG

[4] = biological target: T6, hPUF_MT(R8_N12S,Q16E, R3→R5, R4→R6) (R8 repeat N12S,Q16E); test: EMSA; binds G exclusively
T6 chain: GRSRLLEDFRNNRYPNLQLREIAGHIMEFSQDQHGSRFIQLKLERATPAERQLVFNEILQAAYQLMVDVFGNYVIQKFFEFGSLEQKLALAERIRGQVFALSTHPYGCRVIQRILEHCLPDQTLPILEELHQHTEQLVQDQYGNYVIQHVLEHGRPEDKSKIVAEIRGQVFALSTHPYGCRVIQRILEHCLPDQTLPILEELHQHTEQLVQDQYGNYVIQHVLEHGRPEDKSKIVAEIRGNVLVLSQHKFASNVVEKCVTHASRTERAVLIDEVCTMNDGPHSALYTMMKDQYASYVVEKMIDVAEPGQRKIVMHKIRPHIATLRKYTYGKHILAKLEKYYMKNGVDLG

CCAGAAUUGUAUAUAUUCG (ssRNA) [OTS-1511]
binding result [1]: no binding | binding result (hPUF_MT(R7_ILQ)): binds | binding result (hPUF_MT(R7_IRG)): binds | binding result [2]: no binding | binding result [3]: no binding | binding result [4]: no binding
